From US20250270341A1 (Alector, published 2025)

T1: Full length mouse CD98hc on CHO cells (mouse, UniProt P10852 1-526)
T1 construct: CHO cells stably overexpressing it; also called CHO-mouse CD98hc; CHO-mCD98hc
T1 sequence: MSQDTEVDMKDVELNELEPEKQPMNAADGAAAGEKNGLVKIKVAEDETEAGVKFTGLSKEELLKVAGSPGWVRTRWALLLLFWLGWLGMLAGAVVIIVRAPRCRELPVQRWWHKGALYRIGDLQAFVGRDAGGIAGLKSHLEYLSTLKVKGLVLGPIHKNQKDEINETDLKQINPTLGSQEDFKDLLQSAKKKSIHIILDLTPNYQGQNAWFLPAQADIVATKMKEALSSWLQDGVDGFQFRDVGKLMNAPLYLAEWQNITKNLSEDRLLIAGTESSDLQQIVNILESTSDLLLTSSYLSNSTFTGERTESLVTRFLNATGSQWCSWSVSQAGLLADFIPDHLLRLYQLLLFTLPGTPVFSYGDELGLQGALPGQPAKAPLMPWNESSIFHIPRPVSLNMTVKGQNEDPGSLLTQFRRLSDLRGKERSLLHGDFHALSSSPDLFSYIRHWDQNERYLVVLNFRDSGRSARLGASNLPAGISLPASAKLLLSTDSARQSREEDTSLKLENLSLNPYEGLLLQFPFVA

T2: Cyno CD98hc ECD Avi-His (cynomolgus macaque, UniProt P08195 105-529 (human entry))
T2 construct: biotinylated on the Avi tag where captured on streptavidin; also called Cyno CD98-AVI-His; Cyno CD98hc-AVI-His
T2 chain: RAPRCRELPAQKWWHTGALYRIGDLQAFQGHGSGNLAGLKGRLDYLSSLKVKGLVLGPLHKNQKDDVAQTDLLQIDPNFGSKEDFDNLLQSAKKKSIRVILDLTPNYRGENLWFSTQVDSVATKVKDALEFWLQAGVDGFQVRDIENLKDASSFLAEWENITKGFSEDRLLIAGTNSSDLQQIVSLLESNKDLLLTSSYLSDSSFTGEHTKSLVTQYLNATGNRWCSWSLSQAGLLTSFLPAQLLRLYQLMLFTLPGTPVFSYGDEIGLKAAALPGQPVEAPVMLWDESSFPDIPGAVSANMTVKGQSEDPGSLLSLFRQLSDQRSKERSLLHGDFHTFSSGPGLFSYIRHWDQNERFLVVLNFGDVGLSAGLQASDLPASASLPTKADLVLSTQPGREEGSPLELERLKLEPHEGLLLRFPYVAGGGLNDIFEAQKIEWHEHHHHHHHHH

T3: huCD98hc ECD Avi-His (human, UniProt P08195 105-529)
T3 construct: biotinylated on the Avi tag where captured on streptavidin; also called Human CD98-AVI-His; Human CD98hc-AVI-His
T3 sequence: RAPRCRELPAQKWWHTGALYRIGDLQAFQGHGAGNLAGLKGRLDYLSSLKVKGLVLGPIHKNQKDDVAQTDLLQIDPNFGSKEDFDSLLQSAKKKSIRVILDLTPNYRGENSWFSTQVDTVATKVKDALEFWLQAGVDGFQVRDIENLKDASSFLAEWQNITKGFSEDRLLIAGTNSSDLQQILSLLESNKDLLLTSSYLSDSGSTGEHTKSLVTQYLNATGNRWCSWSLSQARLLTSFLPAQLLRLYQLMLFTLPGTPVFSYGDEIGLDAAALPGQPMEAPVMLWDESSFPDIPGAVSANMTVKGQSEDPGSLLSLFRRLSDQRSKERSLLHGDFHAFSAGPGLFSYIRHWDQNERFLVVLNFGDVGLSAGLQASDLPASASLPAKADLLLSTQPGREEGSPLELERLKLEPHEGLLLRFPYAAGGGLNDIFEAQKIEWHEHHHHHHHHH


Key:
[1] = biological target: T1, Full length mouse CD98hc on CHO cells; assay: FACS, hybridoma supernatant
Excerpt: The IgG positive hybridoma supernatants (898 in total) were initially screened for their ability to differentially bind CHO cells overexpressing human or mouse CD98hc cells compared to CHO parental cells by FACS. Overexpressing cells were harvested, washed, and labeled with various concentrations and combinations of CellTrace cell proliferation dyes CFSE and Violet (ThermoFisher, Cat #C34554 and Cat #34557, respectively) to create uniquely barcoded cell populations. Barcoded cells (5×10⁴ of each cell population) were aliquoted into 96-well U-bottom plates and incubated with 50 μl of hybridoma cell culture supernatant or 1 μg/ml of commercially available purified mouse anti-human CD98hc monoclonal antibody (Sigma Aldrich, Cat #SAB 4700503) and rat anti-mouse CD98hc antibody (Bio-Rad Laboratories, Hercules, CA, Cat #MCA2684) on ice for 30 minutes. […] Following this secondary antibody incubation, the cells were again washed twice with ice-cold FACS buffer and resuspended in a final volume of 50 μl of FACS buffer containing 0.25 μl/well propidium iodide (BD Biosciences, Cat #556463). Binding intensity on cells was analyzed using the FACS Canto system (BD Biosciences), with sorting gates drawn to exclude dead (i.e., propidium iodide-positive) cells. For each barcoded cell population, the ratio of APC Mean Fluorescence Intensity (MFI) divided by secondary antibody MFI was calculated for each anti-CD98hc hybridoma supernatant tested and reported in Table 5.

[2] = biological target: T2, Cyno CD98hc ECD Avi-His; assay: ELISA, hybridoma supernatant
Method: (§1) Briefly, 96-well polystyrene plates were coated with 5 μg/ml of streptavidin (Thermo Fisher, Cat #PI21125) in coating buffer (0.05M carbonate buffer, pH 9.6, Sigma, Cat #C3041) overnight at 4° C. Coated plates were then blocked with ELISA diluent (PBS+0.5% BSA+0.05% Tween20) for one hour. Blocking buffer was removed and human, cyno, or mouse Avi-His-tagged CD98hc and Avi-His-tagged human TfR polypeptides were added at 1 μg/ml in ELISA diluent and captured for 1 hour at room temperature. After washing three times with 300 μl of PBST (PBS+0.05% Tween20, Thermo 28352), the hybridoma cell culture supernatants or 1 μg/ml of commercially available purified mouse anti-human CD98hc monoclonal antibody (Sigma Aldrich, Cat #SAB 4700503) and rat anti-mouse CD98hc antibody (Bio-Rad Laboratories, Hercules, CA, Cat #MCA2684) were added (50 μl/well) to each well. After 30 minutes of incubation at room temperature, the plates were washed three times with 300 μl of PBST. […] After a final set of washes (3×300 μl in PBST), 50 μl/well of BioFx TMB substrate (Surmodics, Eden Praire, MN, Cat #TMBW-1000-01) was added to the wells. The reaction was then quenched after 5-10 mins with 50 μl/well of 2N sulfuric acid. The plates were read for absorbance at 450 nm on a SpectraMax M5 (Molecular Devices, Sunnyvale, CA) using SoftMax Pro software.

[3] = biological target: T3, huCD98hc ECD Avi-His; assay: ELISA, hybridoma supernatant
Method: as §1

| Binder | binding result [1] | OD450 [2] | OD450 [3] |
| --- | --- | --- | --- |
| CD98HC.03.002 (antibody, V domains shown, hybridoma IgG) VH: DVQLVESGGGLVQPGGSRKLSCAASGFTFSTFGMHWVRQAPEKGLEWVAYISGGSTNIYYADTVKGRFTISRDNPKNTLFLQMTSLRSEDTAMYYCARETTLLATNFDYWGQGTTLTVSS VL: DIQMTQTTSSLSASLGDRVTISCRASQDISNYLNWYQQKPDGTVKLLIYYTSRLHSGVPSRFSGSGSGTDYSLTISNLEQEDIATYFCQQGSTLPRTFGGGTKLEIK | no binding | 1.69 | 1.53 |
| CD98HC.03.031 (antibody, V domains shown, hybridoma IgG) VH: QVQLQQSGAELVRPGVSVKISCKASGYTFTDYAMHWVKQSHAKSLEWIGVISTYYGDTTYNQKFKDKATMTVDKSSSTAYLELARLTSEDSAIYYCARVWLLSYAMDNWGQGTSVTVSS VL: DIVMTQSQRFMSTSVGDGVRITCKASQNVRTAVAWYQQKPGQSPKALINLAPNRHTGVPDRFTARGSGTDFTLTISNVQSEDLADYFCLQHWNYPLTFGAGTKLELK | no binding | 1.48 | 1.06 |
| CD98HC.04.003 (antibody, V domains shown, hybridoma IgG) VH: QVQLQQSGAELAKPGASLKMSCKASGYTFTDYYIHWVKQRPGQDLEWIGYINPNSAYTDSNQKFKDKATLTADKSSNTAYMQLSSLTSEDSAVYYCARKGHFYAPSFAYWGQGTLVTVSA VL: DIQMTQTTSSLSASLGDRVTISCRASQDISNYLNWYQQKPDGTVKLLIYYTSRLHSGVPSRFSGSGSGADYSLTISNLQQEDIATYFCQQGDTLPYTFGGGTKLEIE | no binding | 2.05 | 1.6 |
| CD98HC.04.006 (antibody, V domains shown, hybridoma IgG) VH: EVNLVESGGDLVQPGGSLRLSCATSGFTFTDYFMSWVRQPPGKALEWLGFIRNKAYGYTTEYSASVKGRFTISRDNSQSIFYLQMNTLRLEDSATYYCARGPFISTAPFAYWGQGTLVTVSA VL: DIVMSQSPSSLAVSVGETVTMSCKSSQSLLYSSNQKNYLAWYQQKPGQSPKLLIYWGSTRESGVPDRFTGSGSGTDFTLTISSVKAEDLAVYYCQHYYGYPWTFGGGTKLEIK | no binding | 1.71 | 1.24 |
| CD98HC.04.009 (antibody, V domains shown, hybridoma IgG) VH: QVQLKESGPGLVAPSQSLSITCTVSGFSLTSYGVHWVRQPPGKGLEWLGVIWAGGSTYYNSALMSRLSISKDNAKSQVLLKMSSLQTDDTAMYYCARDNYGGVYLDVWGAGTTVTVSS VL: ENVLTQSPASMSASPGEKVTMTCRASSSVSSSYLHWYQQKSGASPKLWIYSTSNLASGVPARFSGSGSGTSYSLTISSVEAEDAATYYCQQYSGYPLTFGSGTKLEIK | no binding | 1.42 | 0.991 |
| CD98HC.04.010 (antibody, V domains shown, hybridoma IgG) VH: QVQLQQSGAELMKPGASVKISCKATGYTFSTYWIEWVKQRPGHGLEWIGEILPGSGTTTYNEKFKGKATFTADTSSNTAYMQLSSLTSEDSAVYYCARRTVYYRYEGIDYWGQGTTLTVSS VL: QIVLTQSPAIMSASPGEKVTITCSASSSVSYMFWFQQRPGTSPKLWIYTTSNLASGVPARFSGSGSGTSYSLTISRMEAEDAATYYCQQKNNYPFTFGSGTKLEIK | no binding | 1.97 | 1.48 |
| CD98HC.04.011 (antibody, V domains shown, hybridoma IgG) VH: DVQLQESGPDLVKPSQSLSLTCSVTVYSFTSVYSWHWIRQFPGNKLEWMGYIHDSGTTNYNPSLKSRISVTRDTSKNQFFLQLNSVTTEDTATYYCARGRPYGYDGFAYWGQGTLVTVSA VL: DIQMTQSSSYLSVSLGDRVTITCKASDHINNWLAWYQQKPGNAPRLLITGAVNLETGVPSRFSGSGSGKDYTLSITSLQTEDVATYYCQQYWSIPRTFGGGTNLEIK | no binding | 1.76 | 1.16 |
| CD98HC.04.012 (antibody, V domains shown, hybridoma IgG) VH: QVQLQQSGADLVRPGDSVKISCKGSGYTFTDNTLHWVKQSHAKSLEWIGVISPYYGDASYNQKFKGKATMTVDKSSSTAYMELARLTSEDSAIYYCARVGGRLRLGYYFDHWGQGTTLTVSS VL: NIMMTQSPSSLAVSAGEKVTMNCKSSQSVLSSSNQKNYLAWYQQKPGQSPKLLIYWASTRESGVPARFTGSGSGTDFSLTITSVQAEDLAVYYCLQYLSSYTFGGGTKLEIK | no binding | 1.73 | 1.64 |
| CD98HC.04.013 (antibody, V domains shown, hybridoma IgG) VH: EVQLVESGGDLGMPGGSLKLSCAASGFALSGYDMSWVRQTPDKRLEWVAYLSSGGGSTYYPYTVKGRFTISRDNAQNTLYLQMSSLKSEDTAIYYCARHSEVRPWFGYWGQGTLVTVSA VL: DIVMSQSPSSLAVSVGEKVTLTCKSSQSLLYSGNQKNYLAWYQQNPGQSPKLLIYWASTRESGVPDRFTGSGSGTDFTLTISSVKAEDLAVYYCQQYYTYPPTFGAGTKLGLK | no binding | 2.04 | 1.17 |
| CD98HC.04.018 (antibody, V domains shown, hybridoma IgG) VH: QIQLVQSGPELKKPGETVKISCKASGYTFRNYGMNWVKQAPGKGLKWMGWINTYTGEPTYAEDFKGRFAFSLETSASTAYLQINKLKNEDEATYFCARGEAHWYFDVWGAGTTVTVSS VL: QIVLTQSPAIMSASLGERVTMTCTASSSVSSSYLYWYQQKPGSSPKLWIYSIFNLASGVPARFSGSGSGTSYSLTISSMEAEDAATYYCHQYHRSPPTFGGGTKLEIK | no binding | 1.97 | 1.64 |
